Read-outs that look alike come from different tables or passages of the source.
T1: CIB2 (calcium and integrin-binding protein 2), wild type (mouse, UniProt Q9Z309 1-187)
T1 sequence: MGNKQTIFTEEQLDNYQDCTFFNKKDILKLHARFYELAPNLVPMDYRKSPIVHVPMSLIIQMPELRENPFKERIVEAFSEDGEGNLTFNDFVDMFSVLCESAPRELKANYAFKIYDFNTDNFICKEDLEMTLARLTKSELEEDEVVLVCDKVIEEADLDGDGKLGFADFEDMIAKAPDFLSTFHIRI

T2: CIB2-DD116/120AA (mouse, UniProt Q9Z309 1-187, DD116/120AA | DD116/120AA)
T2 sequence: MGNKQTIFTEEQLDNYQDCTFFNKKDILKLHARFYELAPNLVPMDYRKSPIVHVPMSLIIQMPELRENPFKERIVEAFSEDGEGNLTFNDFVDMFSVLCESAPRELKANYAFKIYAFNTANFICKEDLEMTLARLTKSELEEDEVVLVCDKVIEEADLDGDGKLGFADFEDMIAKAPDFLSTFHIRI

T3: CIB2-DD157/161AA (mouse, UniProt Q9Z309 1-187, DD157/161AA | DD157/161AA)
T3 sequence: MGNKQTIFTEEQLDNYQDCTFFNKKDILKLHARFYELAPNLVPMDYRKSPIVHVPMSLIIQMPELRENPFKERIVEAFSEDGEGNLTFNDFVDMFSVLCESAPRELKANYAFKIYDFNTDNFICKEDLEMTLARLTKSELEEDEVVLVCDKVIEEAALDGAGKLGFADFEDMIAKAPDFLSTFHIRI

T4: CIB2, wild type, Trx-His6 tag removed (mouse, UniProt Q9Z309 1-187)
T4 sequence: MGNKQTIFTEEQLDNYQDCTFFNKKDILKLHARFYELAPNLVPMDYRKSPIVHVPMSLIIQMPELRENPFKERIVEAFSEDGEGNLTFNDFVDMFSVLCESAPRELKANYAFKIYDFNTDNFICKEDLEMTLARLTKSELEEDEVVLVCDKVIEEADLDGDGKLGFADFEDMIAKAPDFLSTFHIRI

T5: CIB2-E141N (mouse, UniProt Q9Z309 1-187, E141N)
T5 sequence: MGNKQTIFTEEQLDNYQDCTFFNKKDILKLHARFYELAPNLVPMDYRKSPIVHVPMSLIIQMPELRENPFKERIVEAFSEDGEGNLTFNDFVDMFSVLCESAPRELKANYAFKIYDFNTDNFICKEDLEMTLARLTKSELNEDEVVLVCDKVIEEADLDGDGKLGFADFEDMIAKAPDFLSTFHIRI


How the values were obtained:
[1] = target: T1, CIB2 (calcium and integrin-binding …); experiment: ITC
[2] = target: T1, CIB2 (calcium and integrin-binding …); experiment: ITC; remark: listed apart in the source
[3] = target: T2, CIB2-DD116/120AA; experiment: ITC
[4] = target: T3, CIB2-DD157/161AA; experiment: ITC
[5] = target: T4, CIB2, wild type, Trx-His6 tag removed; experiment: SEC-MALS
[6] = target: T5, CIB2-E141N; experiment: crystal structure
[7] = target: T4, CIB2, wild type, Trx-His6 tag removed; experiment: SEC-MALS; remark: listed apart in the source

| Binder | Kd [1] [nM] | Kd [2] [nM] | stoichiometry N [5] | other results |
| --- | --- | --- | --- | --- |
| EELERLKALLDENRQMIATVKCKPWKMEKKIEVLKEAKKFVSENEGALGK (domain or fragment, mouse, UniProt Q8R4P5 81-130, looked up) [TMC1 cytosolic region 1 (CR1, amino acids 81-130)] | ~870 | ~74 | – | fold decrease of binding against CIB2 WT [3]: ~150 fold; fold decrease of binding against CIB2 WT [4]: ~50 fold |
| EELERLKALLDENRQMIATVKCKPWKMEKKIEVLKEAKKFVSENEGALGK (domain or fragment, mouse, UniProt Q8R4P5 81-130, looked up) [TMC1 CR1 (amino acids 81-130), Trx-His6 tag removed] | – | – | 1 | binding result [6]: binds |
| KGQKAANLDLKKKMKQQALENKMRNKKMAAARAAAAAGGQ (domain or fragment, mouse, UniProt Q8R4P5 718-757, looked up) [TMC1 CR3 (amino acids 718-757) as used in SEC-MALS] | – | – | – | stoichiometry N [7]: 1 |
| TMC1 CR2 (amino acids 298-352) as used in SEC-MALS (domain or fragment, mouse, UniProt Q8R4P5 298-352, looked up) GGGDDNTFNFSWKVFCSWDYLIGNPETADNKFNSITMNFKEAIIEERAAQVEENI | – | – | 1 | – |

More lines, main results first:

| Kd [1] [nM] | Kd [2] [nM] | stoichiometry N [5] | Binder | other results |
| --- | --- | --- | --- | --- |
| ~43400 | – | – | KGQKAANLDLKKKMKQQALENKMRNKKMAAARAAAAAGGQ (domain or fragment, mouse, UniProt Q8R4P5 718-757, looked up) [TMC1 cytosolic region 3 (CR3, amino acids 718-757)] | – |
| ~10800 | ~480 | – | TMC1 cytosolic region 2 (CR2, amino acids 298-352) with MBP tag (domain or fragment, mouse, UniProt Q8R4P5 298-352, looked up) GGGDDNTFNFSWKVFCSWDYLIGNPETADNKFNSITMNFKEAIIEERAAQVEENI | – |
